Substrate: CC(=O)SCCNC(=O)CCNC(=O)[C@H](O)C(C)(C)COP(=O)(O)OP(=O)(O)OC[C@H]1O[C@@H](n2cnc3c(N)ncnc32)[C@H](O)[C@@H]1OP(=O)(O)O
Assay: GNA1 kinetic assay, Michaelis-Menten
Format: biochemical, Cryptosporidium parvum
Settings: co-substrate GlcN-6P

B1: CpGNA1 (Cryptosporidium parvum Iowa II) (protein)
chain: MISSFEVRKATIDDYFELRNLICDVTRCTETLSREQAEERFRYNTYHPYCLVDTENGRIVGYAGFYIIPHLGRKNDSRIEHVIISKEYRNRGLGRLLCKQIIEDAKNKFNCGRIDLTVESHIAKKLYSSLEFEKVNTEVMRNSFLDLTPKSD
Km: 241.7 ± 35.3 µM
